Test: soluble on expression in E. coli; label from the status in PepcDB or PDB records

| Sequence | soluble on expression in E. coli |
| --- | --- |
| MAHHHHHHMKCFYITEKGKKQNFRNIKLITFDLDHTIWNIDGLLNYADKECYEYMKKNYRRLYDYLQEEYQLSITNLVKQLLENKIEDNNDGVQTLTNMRIDALKFLAKKTNYDEGKFVSEIQELWKEKKNDVHLFISPGTLEYLRELKRRGYTLGAITNGDSDVNGIKFLNEIFTFVIRSMDYNHSKPSVEIFNIAENILKKKNFHFEIHQWMHVGDDVYTDIMGAKNKNINCAWITMFRDGSEVPPNDWYPYLKLKLEENGDSHLSQYDPFADGLFSRFRRRDVVLPYEYIDIE | not soluble |
| MKTAIIQLPGLNRDRDMVAALHHITGVEPLKIWQTESTIPDVDVIVIPGGFSYGDYLRCGAIGARTPVLQAVREKAQKGVTVIGICNGFQILLEAGLLPGTLMRNTSLKFVCREIKLEVVNVNTKFSRYYSKGQIICCPVAHHDGNYFVDSETLKQMEENEQIIFRYAENTNPNGSVNDIAGIINKAGNILGMMPHPENFIEPAHGGTDGRLFFQSALELAKG | not soluble |
| MSLTNKELKKNLEDCVNCRLCYKVCPMMNTFGESPKNILRDIDKNKISYDEIAYSCMLCNACTEACPKDINLKEMFQNLRIKSYRENLKNTSKKFNLKVVQNHQKGSFSKFLTSKNNHKKIKRVFIPGCSLSGYNNEIIFKIKDYLIENLGKVEILLKCCGKPSKDIGNLELFESNLNDIENNLKIKEVDEIIVACENCYKTFGSAFKDIKVITLWEVINEFGVPKELKNKYSDLKEEFALHDPCPIKKEEQIHEAVRSILKDLGIKIVEFEKNRSKTECCGCGGMVGVTNKELWLSQKNKRANSTECENIVSYCESCVNTFKSSDKNALHILDFIFNEDVINGKAKSQKNISTINQWINRIKLANKVGKEGHHHHHH | not soluble |
| MVNSDIREQLRPFFEPKAVAIIGATNKKGKVGNVIFENFKKNKEKGIFKGNIYPVNPKLDEIEGYKVYHDVSELPDDTDLAVIAIPAPAVPETMRKIGEKGIKSVIIITGGFGELGEEGKRMEQEILEIARANGIRVIGPNCVGVYVPDTGVDTVFLPDEKMDRPPSGPIAFISQSGAFAAAMLDWAAMAGIGIGKMVSYGNKIDVDDADLMEYFAHDDEIKVMTFYIEGVKDGRKFMETAKRVTKIKPIIALKSGRTEYGAKAASSHTGSLAGQDVIYDAVFKQTGIIRAEDFEHMFDLAKAFAKCKLPKGDRIGIITDGGGAGVMASDAVAKFGLKLAELSEETIKFLRERFPPHAVVGNPTDVVGDTDAERYRLALEAFTKDPNVDAILLIVLFQVPLLDEEEVINIITDYAKKSDKPIVVVSMGGYKTDKYARMLEERGIPVYPTPERGVRALAGLVRYAKYIRGNGE | soluble |
| MSLSVPFEYTPIAQSVLDECEHLDTASLSDALDSLGIDGGLPGIASQVPGTRCVGIAFTVQYQPVDASEGFRGAANYIDQVPSGSVIVSSNSGRHDCTVWGDIMTHFALANGIKGTVIDGVARDIDTVINCNYPLFSRGRFMQSAKNRTQLKAVQVPLVIDGITIQPGDLMVCDGSGCVVVPQQLAAEVVLRARAVEQTERRIIEAISSGSTLEQARMTYRYDQPWLSEAEHGGTQEGHHHHHH | soluble |
| MGSDKIHHHHHHMAQQKDTKKITVFTSTYNRAYILPKLYESLKLQTCKDFEWLVVDDGSEDETSELFDKWLEEDVIEIAYFKKKNGGKHRAINFAASKAQGQLFFIVDSDDYLTLTAVEIICKEWEKVENKKQSAGLCFRKICYNTGKMIGADFPVSPIDASSLTICYKWKIYEDKAEVFKTELIRRFPFPEIEGEKFISEAIVWNKISVCDSPLLRCVNTGIYMCEYLPDGLTANFIKLMKRNPKGGILYYKSLFNLSCIRKNPIDILKISLRLSQCIIYSFLRCFGSYL | not soluble |
| GMTQTTPQPDPSRLRDELVRLHGKASPEWDSLVRLDPRFVDAYLKFAGVPQRRNHLDDKTRAFIALAADACATQLYAPGVARHIERALSFGATREELIEVLELVSTIGIHTSNVGVPVLLEVLEEEGLRKGAPPLDERRQKLKAEFETNRGYWHPTWEGLLELDPDLFEAYVEFSSVPWRTGVLSPKIKEFMYCAFDASATHLYVPGLKLHIRNALRYGATAEELMELLEIVSVTGIHGAELGAPLLEAALKRSGAAAGEPHA | soluble |
| MDKHQQAIITVSAYITNDTGEVLLVKSYDRSDTWEMPGGQVEPGEPLDRAVHREVYEETGVDIRLIGVSGVYYNETKNIINIVFKATYVKGNVSPQPEEIQKAKFVLIDESNIDEYVTWPHLKSRVLDAMKRECSVPYETWVMNPSRLSARVGR | not soluble |
| SVEDELALFDKSINEFWNKFKSTDTSCQMAGLRDTYKDSIKAFAEKLSVKLKEEERMVEMFLEYQNQISRQNKLIQEKKDNLLKLIAEVKGKKQELEVLTANIQDLKEEYSRKKETISTANKANAERLKRLQKSADLYKDRLGLEIRKIYGEKLQFIFTNIDPKNPESPFMFSLHLNEARDYEVSDSAPHLEGLAEFQENVRKTNNFSAFLANVRKAFTATVYN | soluble |
| MGSDKIHHHHHHMIDFSLCEVNKFRAYGGANGNKINILYEGNSYMLKFSPVPSRNKAMSYTNGCISEYLACHIFASLGFKTQETLLGTYTDPRGKEKVVVACGDFTEGGKRLIEFAHLKNTCISSEQNGYGKELSSIMQAIDEQMLLPPDQLRDFFWDMFIADALLGNFDRHNGNWGILVDEQSKTAEIAPVYDCGSCLYPQLAAKDMGDVLNSEDEIDRRVYVFPTSSIEEDGKKISYFEFISSLRNPDCTAALKRVSARIDMEKIRMLIDKTPTLLPVQKEFYTVIISERKAKIIDYSMEKLMKLKGQDLERDEQQNGGLQFTM | not soluble |
| AIELVPEHQTVPVSIGVPATLRCSMKGEAIGNYYINWYRKTQGNTMTFIYREKDIYGPGFKDNFQGDIDIAKNLAVLKILAPSERDEGSYYCACDTLGMGGEYTDKLIFGKGTRVTVEPRSQPHTKPSVFVMKNGTNVACLVKEFYPKDIRINLVSSKKITEFDPAIVISPSGKYNAVKLGKYEDSNSVTCSVQHDNKTVHSTDFEVKTDSTDHVKPKETENTKQPSKS | soluble |
| MIYIIQGGRAGNQLFSYAFAQRIRQIYGNEEICFVLSAIKNKAMDDCNGAYWEDSLKYFDVQDYSVSFEDNIVTKEGNLFQRFLYQFWRGSRKLNNIIFSLTGVEFSKFSLLLNRVVFNLISRFGLYIITHGFSESIKKTSFKNKFIYGSFEDNRWFSDIESKLRLEFKPKYNLNEKALQLYNELLNQNAICVSLRKWSIDVHDDSELEKREICDRNYYEKAINHIINTVEKPIFVVFSDDLEWASELMRSIIKDRYPLLVEKGDNNVAEKLFLMSTCKHFIIANSTFSWWAAYLGEFSDKIVVSPNIWFKSNKQFHPLILDDWIKINCQLEHHHHHH | not soluble |
| MVGPLKIGRHEVKYPLIQGGMGVRISGGRLAGHVAKCGGVGLVAAAGISLSGLFTGANYLQSNPEAMRKELRKAYAIAPDGVIGVNIMVALTDYEELVRASIDGGAKVIVCGAGLPLTLPELTAHAPEVALVPIVSSVRAAQLIAKKWEKGFGRLPDAVVVEDPDTAGGHLGEKLENIGAGTYDQYGTIRAIKAYFLEEYGVSVPVVAAGGIWDRDDVLHAFEQGADAVQMASRFVPTVECDADDAYKQAYLECRREDIGLIMSPAGLPGRAILRNQDQIVLHDQLKGVACGNGCLKKCSYKETGERFCIVNALDRAQRGDVETGLVFCGTNAWKADRITTVQEIFDELFAVGEESEKAA | not soluble |
| MGSDKIHHHHHHMSQLEKAQAEYAGFIQEFQSAIISTISEQGIPNGSYAPFVIDDAKNIYIYVSGLAVHTKNIEANPLVNVLFVDDEAKTNQIFARRRLSFDCTATLIERESQKWNQVVDQFQERFGQIIEVLRGLADFRIFQLTPKEGRFVIGFGA | soluble |
| MSLTRPVTLSEPHFSQHTLNKYASLMAQGNGYLGLRASHEEDYTRQTRGMYLAGLYHRAGKGEINELVNLPDILGMEIAINGEVFSLSHEAWQRELDFASGELRRNVVWRTSNGAGYTIASRRFVSADQLPLIALEITITPLDADASVLISTGIDATQTNHGRQHLDETQVRVFGQHLMQGIYTTQDGRSDVAISCCCKVSGDVQQCYTAKERRLLQHTSAQLHAGETVTLQKLVWIDWRDDRQAVLDEWGSASLRQLEICAQQSYDQLLAASTENWRQWWQKRRITVNGGDAHDQQALDYALYHLRIMTPAHDERSSIAAKGLTGEGYKGHVFWDTEVFLLPFHLFSDPTVARSLLRYRWHNLPGAQEKARRSGWQGALFPWESARSGEEETPEFAAINIRTGLRQKVASAQAEHHLVADIAWAVIQYWQTTGDESFIAHEGMALLLETAKFWISRAVRVNDRLEIHDVIGPDEYTEHVNNNAFTSYMARYNVQQALNIARQFGCSDDAFIHRAEMFLKELWMPETQPDGVLPQDDSFMAKPAINLAKYKAAAGKQTILLDYSRAEVNEMQILKQADVVMLNYMLPEQFSAVSCLANLQFYEPRTIHDSSLSKAIHGIVAARCGLLTQSYQFWREGTEIDLGADPHSCDDGIHAAATGAIWLGAIQGFAGVSVRDGELHLNPALPEQWQQLSFPLFWQGCELQVTLDAQRIAIRTSAPVSLRLNGQLISVAEESVFCLGDFILPFNGTATTHQEDEEGHHHHHH | soluble |
| MSLNPMIAKQKPNGNIQCLVCNAEIKPKIWTAHVNGKKHRDSIEKLKTSAQKRGKESSTRNTDEPPNKKQKEVPNQGPTTLPTDFFDDESTPFRKDDSKTATVGHNSNLIEGVPAGFFDDKRLDGNVRETRERNAELDAEYERWKEEIGEEQVELDTKAEELEAAVQRELELERIDEQMAALKKLNDMEIQKEKRLNQARERRLKREEPEEEEDDDGEDIDLDALDWRAKNIFA | not soluble |
| MPSYKLTYFDACGFGESARMLFHLGGVPYEDVRLPTINAVPGFQSDEFSALKDKTPFGRFTVLSIDGFDLAQSSAIHRYLARKFGYAGKTPEDEAFADSIVDQFNEYYASLHPYRDAVKTGKTMEEVKQIHDKVYIPAKNLMFKILTRILKENKSGFLVGDGLTWADLVVADHLYTLTNLKELDPEDPIHLTLRKFQEKIFNLTELKDYIETRPVTLV | not soluble |
| MSDRHFDELATRFAEKIYGGAKGAIRLAVLQADLAEALPERPLRVLDIGAGLGHMSLWLAARGHRVTLAEPAQPMLDGARQRFAEAGQAAEFIQAPWQELLGQLTEPYDLVLCHAVLEWLAEPHAILPVLHQLCAPGGWLSLAFYNRDALIYRNLLKGHFRKLRKERFAGEGQSLTPQRPLDPRELEQALAARWRIEARSGVRVFHDYMPSEFQAKAERLDLVEMELAYRRHPAFAGLGRYLHWLCRPQ | not soluble |
| MEYDVYVRVSKEDVHLLNYLLEVEEHMFNIRKYEDGVLKIITPFPEEAIKLLEGCKEMVDLEILEVKENPGEA | soluble |
| MSLNEKVALVTGASRGIGFEVAHALASKGATVVGTATSQASAEKFENSMKEKGFKARGLVLNISDIESIQNFFAEIKAENLAIDILVNNAGITRDNLMMRMSEDEWQSVINTNLSSIFRMSKECVRGMMKKRWGRIISIGSVVGSAGNPGQTNYCAAKAGVIGFSKSLAYEVASRNITVNVVAPGFIATDMTDKLTDEQKSFIATKIPSGQIGEPKDIAAAVAFLASEEAKYITGQTLHVNGGMYMA | soluble |
| MRAKKRKFLQKEELSKLLQSLDMSQIGFGWFVMLVAKTGMRYAEALAITPADFDWTAQTISINKTWDYKYNKGFAKTKTLSSVRTIKIDWQIVGQFKPLIKDFPEDEPIFVEKFGDGTYKRQFNSTINNFLAVKCNETGITQISFHALRHTHASVLLAEGVSIHTISARLGHADVGVTQETYALEHHHHHH | soluble |
| LKASGVQAQMAKQQEQDPTNLYISNLPLSMDEQELENMLKPFGQVISTRILRDSSGTSRGVGFARMESTEKCEAVIGHFNGKFIKTPPGVSAPTEPLLCKF | soluble |

From the DeepSol protein solubility set
